T1: S114A human B7-H4 (full-length membrane construct, glycosylation site N112-S114 removed) (human, UniProt Q7Z7D3 29-282)
T1 construct: Transiently transfected into 293 cells; also called mutated S114A human B7-H4
T1 sequence: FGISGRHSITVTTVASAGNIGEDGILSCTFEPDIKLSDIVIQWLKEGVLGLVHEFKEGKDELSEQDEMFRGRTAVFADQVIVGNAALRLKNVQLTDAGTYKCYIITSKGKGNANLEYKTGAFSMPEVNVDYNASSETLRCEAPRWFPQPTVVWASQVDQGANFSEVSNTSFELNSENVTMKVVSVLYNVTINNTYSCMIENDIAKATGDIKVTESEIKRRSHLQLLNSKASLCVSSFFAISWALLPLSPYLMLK

T2: irrelevant (Ig-V)-B7-H4 (Ig-C; D158-G236 including TM/CD D237-K282) chimeric membrane protein (construct-88B) (human, UniProt Q7Z7D3 158-282)
T2 construct: Transiently expressed on 293 cells; also called B7-H4 Ig-C domain; not shown: irrelevant Ig-V domain; an N-terminal or cytoplasmic tag was attached but is not described
T2 sequence: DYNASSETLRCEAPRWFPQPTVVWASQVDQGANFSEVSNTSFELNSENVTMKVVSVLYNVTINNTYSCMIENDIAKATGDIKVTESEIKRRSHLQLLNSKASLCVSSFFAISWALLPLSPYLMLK

B1: ch1D11, slightly modified version with light chain C43G (antibody, human IgG1, V domains shown)
VH: QVQLQQSGAELVRPGTSVKMSCKASGYTFTSYWIGWAKQRPGHGFEWIGDIYPGGGYTNYNEKFKGKATLTADKSSSTAYMQFSSLTSEDSAIYYCARLDGSSYRGAMDSWGQGTSITVSS
VL: DIQMTQSPSSLSASLGGKVTITCKASQGFNKYVAWYQHKPGQGPRLLIHYTSTLQPGIPARFSGSGSGRDYSFSISNLEPEDSATYFCLQYGNLLYAFGGGTKLEIKR
notes: Human IgG1 / kappa chimeric; also called ch1D11 (C43G light chain)
B2: chimeric antibody ch22C10 (antibody, V domains shown)
VH: QVQLQQPGAELVKPGTSVKLSCKASGYTFTNFWIHWVIQRPGQGLEWIGEIDPSDSYTNYNQKFKGKATLTVDKSSNTAYMQLSSLTSEDSAVYYCSREITTVDYWGQGTTLTVSS
VL: QIVLTQSPTIMSASPGEKVTLTCSATSSISYMHWYQQKPGTSPKGWIYDTSKLAHGVPARFSGSGSGTSYSLTISSMEAEDAATYYCHQRRSYPFTFGSGTKLEIK
notes: also called ch2210; parental 22C10 antibody
B3: chimeric antibody ch32D6 (antibody, V domains shown)
VH: EVQLQQSGPDLVKPGASVKISCKASGYSFTGYYIHWMKQSHGKSLEWIGRVNPNNGDPIYNQKFRGKAILTVDQSSNTAYMELRSLTSEASAVYYCARVLFYYGSPFAYWGQGTLVTVSA
VL: DIVMTQSPSSLIVTAGEKVTMSCRSSQSLFDSGSQRNYLTWFHQKPGRPPKLLIYWASTRESGVPDRFTGSGSGTDFTLTISSVQTEDLAVYFCQNDYSFPFTFGSGTKLEEK
B4: chimeric antibody ch9B9 (antibody, V domains shown)
VH: QVQLQQSGAELMKPGASVKMSCKATGYTFSSYWIEWVKQRPGHGLEWIGEILPGTSITTYNAKFKVKATFTADTSSNTAYMQLSSLTSEDSAVYFCARYYFGSSSFYFDYWGQGTSLTVSS
VL: QAVVTQESALTTSPGDTVTLTCRSSTGAVTTSNYANWVQEKPDHLFTGLIGGTNNRVPGVPARFSGSLIGDKAALTITGAQTEDEAMYFCALWYNNHWVFGGGTKLE

These binders were tested against T1, S114A human B7-H4 (full-length membrane …) (assay: FACS on 293 cells transfected with S114A human B7-H4, against isotype control).
From the text: The B7-H4 (Ig-V) domain contains a single N-linked glycosylation site (N112-S114), and to determine whether glycosylation influences binding of the antibodies to B7-H4, S114 was substituted with alanine using standard site-specific mutagenesis to prevent glycosylation in the full-length human B7-H4 membrane construct.

fold binding over isotype control	Binder
100 fold	B1
100 fold	B2
100 fold	B3
100 fold	B4

Each binder was assayed against T2, irrelevant (Ig-V)-B7-H4 (Ig-C; …) (assay: FACS on 293 cells transiently transfected with construct-88B, dye-labeled antibody).
From the text: To determine whether the B7-H4 antibodies bind to either the Ig-V or Ig-C domain of B7-H4, chimeric Ig domain molecules were engineered that contain either a B7-H4 (IgV; G28-F150 including spacer S151-V157)—irrelevant (Ig-C) (construct-88) or an irrelevant (Ig-V)-B7-H4 (Ig-C; D158-G236 including TM/CD D237-K282) (construct-88B) membrane protein using standard molecular cloning methods. N-terminal or cytoplasmic tags were attached to confirm that 293 cells transfected with these constructs express protein on the cell membrane (data not shown). Briefly, 293 cells were transiently transfected with constructs 88 & 88B using polyfect. After 48 hours, the cells were stained with 10 μg/ml of Dylight-488 or −650 labeled ch9B9, ch1D11, ch22C10 or ch32D6 for 30-40 minutes at 4° C., washed and analyzed on a BD FACS calibur.

binding result	Binder
no binding (tested: 10 µg/ml)	B1
no binding (tested: 10 µg/ml)	B2
no binding (tested: 10 µg/ml)	B3
no binding (tested: 10 µg/ml)	B4
